# In patent publication US20210024646A1 (published 2021):
# Changes are numbered by the printed parent chain.
# T1: extracellular domain of human CD73 protein (CD73-ECD), C-terminus polyhistidine-tagged (UniProt P21589 27-547)
# T1 chain: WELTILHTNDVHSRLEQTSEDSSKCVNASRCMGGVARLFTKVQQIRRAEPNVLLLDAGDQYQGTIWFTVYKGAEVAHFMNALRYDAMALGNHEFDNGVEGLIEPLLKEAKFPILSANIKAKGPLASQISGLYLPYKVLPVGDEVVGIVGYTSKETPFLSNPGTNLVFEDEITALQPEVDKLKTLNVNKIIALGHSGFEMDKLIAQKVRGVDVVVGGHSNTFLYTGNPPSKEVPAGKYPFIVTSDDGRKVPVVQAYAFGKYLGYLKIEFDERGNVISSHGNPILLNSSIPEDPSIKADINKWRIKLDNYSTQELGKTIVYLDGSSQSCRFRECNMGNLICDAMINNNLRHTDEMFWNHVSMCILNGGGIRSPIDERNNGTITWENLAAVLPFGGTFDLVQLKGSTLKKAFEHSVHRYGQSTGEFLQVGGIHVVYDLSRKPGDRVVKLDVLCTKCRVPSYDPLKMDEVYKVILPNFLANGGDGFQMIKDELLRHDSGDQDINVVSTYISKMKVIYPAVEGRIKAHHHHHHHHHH
# T2: Carbon-terminal polyhistidine-labeled recombinant cynomolgus monkey CD73 enzyme (cynomolgus monkey, UniProt A0A2K5V5U7 1-547)
# T2 chain: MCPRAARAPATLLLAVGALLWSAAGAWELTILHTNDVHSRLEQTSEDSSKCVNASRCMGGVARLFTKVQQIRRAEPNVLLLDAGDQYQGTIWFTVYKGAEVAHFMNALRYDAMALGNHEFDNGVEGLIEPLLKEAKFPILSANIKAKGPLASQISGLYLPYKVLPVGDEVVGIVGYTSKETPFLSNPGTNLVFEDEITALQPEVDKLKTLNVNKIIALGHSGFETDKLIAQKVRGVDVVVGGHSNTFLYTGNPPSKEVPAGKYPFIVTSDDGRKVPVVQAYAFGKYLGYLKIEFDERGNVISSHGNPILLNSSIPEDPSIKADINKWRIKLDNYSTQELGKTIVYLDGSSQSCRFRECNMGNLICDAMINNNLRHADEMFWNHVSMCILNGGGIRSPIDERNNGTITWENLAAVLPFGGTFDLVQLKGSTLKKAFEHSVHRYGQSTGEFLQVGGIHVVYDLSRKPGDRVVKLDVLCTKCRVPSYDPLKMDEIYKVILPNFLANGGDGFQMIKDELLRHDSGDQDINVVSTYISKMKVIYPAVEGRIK
# T3: CD73 on the surface of human tumor cells (human, UniProt P21589 27-549)
# T3 chain: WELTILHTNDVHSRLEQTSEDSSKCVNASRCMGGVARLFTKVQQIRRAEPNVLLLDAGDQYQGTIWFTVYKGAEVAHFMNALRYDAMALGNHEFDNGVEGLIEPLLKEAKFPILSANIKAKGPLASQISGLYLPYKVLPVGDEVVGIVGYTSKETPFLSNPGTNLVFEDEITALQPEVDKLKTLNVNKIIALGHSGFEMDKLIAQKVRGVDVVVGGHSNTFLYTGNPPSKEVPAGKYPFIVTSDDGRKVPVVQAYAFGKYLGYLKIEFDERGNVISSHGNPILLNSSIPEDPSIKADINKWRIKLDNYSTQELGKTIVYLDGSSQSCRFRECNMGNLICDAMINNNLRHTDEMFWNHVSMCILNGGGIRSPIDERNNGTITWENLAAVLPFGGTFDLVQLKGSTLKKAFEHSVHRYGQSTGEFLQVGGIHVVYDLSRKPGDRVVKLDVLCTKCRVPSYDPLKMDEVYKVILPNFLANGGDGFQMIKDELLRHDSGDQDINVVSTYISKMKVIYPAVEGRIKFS
# B1: Hu001c-15 (antibody, V domains shown)
# VH: QVQLVQSGAEVKKPGASVKVSCKTSGYTFTNYYIYWVRQAPGQRLEWMGWIYPGNLNIKYNEKFKGRVTITADTSASTAYMELSSLRSEDTAVYYCARDDNYAWFAYWGQGTLVTVSS
# VL: DIQMTQSPSSLSASVGDRVTITCKASQDVSTAVAWYQQKPGKSPKLLIYWTNTRHTGVPSRFSGSGSGTDHTLTISSLQPEDFATYYCQQHYSTPFTFGQGTKLEIK
# B2: Hu002c-16 (antibody, V domains shown)
# VH: QVQLVQSGAEVKKPGASVKVSCKASGYTLTSYWMHWVKKAPGQGLEWIGEINPSQGRSNYNEKFKSKVTLTVDRSTSTVYMELSSLRSEDTAVYYCARRGVSGNYFDYWGQGTLVTVSS
# VL: DIQMTQSPSSLSASVGDRVTITCKASQDINTYLSWFQQKPGKSPKSLIYRSNILVSGVPSRFSGSGSGQDYTLTISSLQPEDFAIYYCLQYDEFPYTFGGGTKLEI
# B3: Hu002c-11 (antibody, V domains shown)
# VH: B2 VH with K38R, K39Q
# VL: DIQMTQSPSSLSASVGDRVTITCKASQDINTYLSWFQQKPGKSPKSLIYRSNILVSGVPSRFSGSGSGQDYTLTISSLQPEDFATYYCLQYDEFPYTFGGGTKLEIK
# B4: Hu002c-10 (antibody, V domains shown)
# VH: B2 VH with K38R, K39Q
# VL: B3 VL with S43A, G100Q
# B5: Hu002c-12 (antibody, V domains shown)
# VH: B2 VH with K38R, K39Q
# VL: B2 VL
# B6: Hu002c-6 (antibody, V domains shown)
# VH: B2 VH with K38R, K39Q, K67R
# VL: B3 VL with S43A, G100Q
# B7: Hu002c-8 (antibody, V domains shown)
# VH: B2 VH with K38R, K39Q, K67R
# VL: B2 VL
# B8: Hu002c-3 (antibody, V domains shown)
# VH: B2 VH with K38R, K39Q, I48M, K67R, L70M, V72R, R74T
# VL: B3 VL
# B9: Hu002c-2 (antibody, V domains shown)
# VH: B2 VH with K38R, K39Q, I48M, K67R, L70M, V72R, R74T
# VL: B3 VL with S43A, G100Q
# B10: Hu002c-4 (antibody, V domains shown)
# VH: B2 VH with K38R, K39Q, I48M, K67R, L70M, V72R, R74T
# VL: B2 VL
# B11: Hu002c-15 (antibody, V domains shown)
# VH: B2 VH
# VL: B3 VL
# B12: Hu002c-14 (antibody, V domains shown)
# VH: B2 VH
# VL: B3 VL with S43A, G100Q
# B13: Hu002c-7 (antibody, V domains shown)
# VH: B2 VH with K38R, K39Q, K67R
# VL: B3 VL
# Molecular target: T1, extracellular domain of human CD73 …
# Test: ELISA
row,Binder,EC50 [nM]
1,B1,0.115
2,B2,0.099
3,B3,0.095
4,B4,0.093
5,B5,0.083
6,B6,0.091
7,B7,0.107
8,B8,0.089
9,B9,0.131
10,B10,0.106
11,B11,0.104
12,B12,0.101
13,B13,0.098

# Molecular target: T1, extracellular domain of human CD73 …
# Test: enzyme inhibition; left table
row,Binder,IC50 [nM]
1,B1,0.04
2,B6,0.064
3,B7,0.025
4,B8,0.036
5,B9,0.042
6,B10,0.049
7,B13,0.028

# Molecular target: T2, Carbon-terminal polyhistidine-labeled …
# Test: enzyme inhibition; left table
row,Binder,IC50 [nM]
1,B1,0.1
2,B6,0.055
3,B7,0.041
4,B8,0.046
5,B9,0.043
6,B10,0.047
7,B13,0.052

# Molecular target: T1, extracellular domain of human CD73 …
# Test: enzyme inhibition; right table
row,Binder,IC50 [nM]
1,B1,0.02
2,B2,0.068
3,B3,0.06
4,B4,0.059
5,B5,0.057
6,B11,0.075
7,B12,0.058

# Molecular target: T2, Carbon-terminal polyhistidine-labeled …
# Test: enzyme inhibition; right table
row,Binder,IC50 [nM]
1,B1,0.05
2,B2,0.072
3,B3,0.065
4,B4,0.059
5,B5,0.058
6,B11,0.074
7,B12,0.056

# Molecular target: T3, CD73 on the surface of human tumor cells
# Test: FACS; NCI-H1299 cells, left table
row,Binder,EC50 [nM]
1,B6,0.836
2,B7,0.91
3,B8,0.902
4,B9,0.874
5,B10,0.873
6,B13,0.829

# Molecular target: T3, CD73 on the surface of human tumor cells
# Test: FACS; NCI-H1299 cells, right table
row,Binder,EC50 [nM]
1,B2,0.86
2,B3,0.774
3,B4,0.758
4,B5,0.82
5,B11,0.804
6,B12,0.822

# Molecular target: T3, CD73 on the surface of human tumor cells
# Test: FACS; MDA-MB-231 cells, left table
row,Binder,EC50 [nM]
1,B6,0.69
2,B7,0.662
3,B8,0.743
4,B9,0.666
5,B10,0.696
6,B13,0.659

# Molecular target: T3, CD73 on the surface of human tumor cells
# Test: FACS; MDA-MB-231 cells, right table
row,Binder,EC50 [nM]
1,B2,0.632
2,B3,0.693
3,B4,0.702
4,B5,0.715
5,B11,0.717
6,B12,0.642

# Molecular target: T3, CD73 on the surface of human tumor cells
# Test: inhibition of cell-surface CD73 enzyme activity; left panel
row,Binder,IC50 [nM]
1,B6,0.41
2,B7,0.223
3,B8,0.535
4,B9,0.478
5,B10,0.33
6,B13,0.279

# Molecular target: T3, CD73 on the surface of human tumor cells
# Test: inhibition of cell-surface CD73 enzyme activity; right panel
row,Binder,IC50 [nM]
1,B2,0.327
2,B3,0.445
3,B4,0.441
4,B5,0.498
5,B11,0.591
6,B12,0.437
